The record followed here is paper PMC9696088, “Alicyclobacillus mali FL18 as a Novel Source of Glycosyl Hydrolases: Characterization of a New Thermophilic β-Xylosidase Tolerant to Monosaccharides” (International Journal of Molecular Sciences, 2022).

In data set [1] the target is AmβXyl, β-xylosidase (GH3) from Alicyclobacillus mali FL18 (Alicyclobacillus mali FL18). Description: SEC-MALS; size-exclusion chromatography (S200 16/60) with triple-angle light scattering and QELS; 500 μg loaded; 100 mM NaCl, 25 mM sodium phosphate pH 7.5, 1 mM DTT; 0.5 mL/min. (In general: SEC sorts molecules by how far they enter the pores of the column.)
Substrate in data set [2]: O=[N+]([O-])c1ccc(O[C@@H]2OC[C@@H](O)[C@H](O)[C@H]2O)cc1
Description: pNP release, A405 nm, Michaelis-Menten fit (GraphPad Prism). It is filed as biochemical, Alicyclobacillus mali (ex Roth et al. 2021). The note with it: 50 mM sodium citrate pH 5.6, 1 mM DTT, 80 °C, substrate 0.1-8.0 mM. The source says:
(§1) pNP release, A405 nm, Michaelis-Menten fit (GraphPad Prism) on AmβXyl

Substrate in data set [3]: O=[N+]([O-])c1ccc(O[C@@H]2O[C@@H](CO)[C@H](O)[C@H]2O)cc1
The data set is described as above. It is filed as biochemical, Alicyclobacillus mali (ex Roth et al. 2021). Conditions: 50 mM sodium citrate pH 5.6, 1 mM DTT, 80 °C, substrate 0.1-8.0 mM.
Text: as §1

Usually stoichiometry N stands for a count of units in the complex or per binding partner. The molecule “AmβXyl, β-xylosidase (GH3) from Alicyclobacillus mali FL18 (enzyme)” came in with a stoichiometry N in data set [1] of 2.

B1: AmβXyl (Alicyclobacillus mali (ex Roth et al. 2021)) (protein)
chain: MYLDPAQSVDARVDALLADMTLEEKVAQLTSIWAFEILDDLRFSAEKAAAVLGQGIGQVTRIGGATNLDPPDVARLANQIQRYLRDHTRLGIPALIHEESCSGYMAKGATCFPQTIGIASTWDVDLAQRIGAIIRDQMRAVGARQALAPLLDVARDPRWGRVEETFGEDPYLVAQMGIAYVRGLQGEDLSQGVMATGKHFVGYGASEGGMNWAPAHIPERELREVYLFPFEAAVREAGLGAIMPGYHELDGVPCHDNPGLLRETLRGRWGFQGLVVSDYFAVNQLFEYHQVARDKAEAAALAVRAGVDVELPTRDVYGKPLIEAVARGLVSVAEIDELVRRVLTWKFRLGLFDHPFVDEGAAIAVFDNAEQRKVAREAAEKSLVLLKNDGLLPLAPRGTIAVIGPNAHTTRNLVGDYAYPCHIESLLEQSEDNVFQTPLPSGVKHVDEFIPMRTILEAIGHRVGSEAQVVYAKGCDVLEGEDADLDEAVALAAQSDVAVVVVGDRAGLTDACTTGESRDRATLSLIGRQEELVRRVLATGTKTVVVLVSGRPLAIPDIAERANAVLEAWLPGEEGAEAVAAVLFGDVNPSGKLPVTIPRSVGQVPIYYGHKPSGGRSHWKGAYVDESNLPLYPFGHGLSYTAFEYRDLTLSASELGVHGEIEVACVIENVGARAGEEVVQLYARDVAADVTRPVKVLCGFARVPLAPGEKARVRFRVSAHQFGFYNREMRYVVEPGEIEIMVGASSEDIRLRGMVRIHGAMTEIEHEKVYQSAVNVERM
notes: synthetic codon-optimised gene in pET-30a(+) NcoI/HindIII, N-terminal His-tag; E. coli BL21 (DE3) RIL; ~89 kDa on SDS-PAGE, dimer ~177 kDa
As usually defined, the Km is the concentration of substrate that gives half-maximal velocity. What is called kcat is the maximal rate divided by the concentration of active sites. In general, kcat/Km refers to the second-order rate constant that governs catalysis at low substrate concentration. With B1, in data set [2], the Km was determined as 0.52 mM, the kcat was 1610 s⁻¹ and the catalytic efficiency (kcat/Km) came out at 3.09e+06 M⁻¹ s⁻¹. For the same molecule, in data set [3], the Michaelis-Menten constant (Km) is 10.56 mM, the catalytic constant (kcat) came to 2400 s⁻¹ and the kcat/Km turned out to be 227000 M⁻¹ s⁻¹.
